From patent US20230227508A1, “SPLIT INTEIN-BASED SELECTION FOR PEPTIDE BINDERS” (priority 2020, published 2023)

Biological target: Expi293F human cell-derived and purified SARS-CoV-2 RBD (RBD296-531) (SARS-CoV-2), P0DTC2

For GVCKYGEWCEIVEI (modifications not checked) [AMK-1057 (purified, PapB-modified 14 aa thioether-cyclized peptide)], which Kd is on record?
The Kd was 990 nM.
